Literature values in US6518244B2, “Combinations of heparin cofactor II agonist and platelet IIb/IIIa antagonist, and uses thereof” (IntimaX Corporation, priority 2000, dated 2003).

Settings: recipients of hirudin; cited from Huhle et al, Br. J. Haematol. (1999)

hirudin
recipients in whom anti-hirudin antibodies are elicited: 74%
